Experimental findings from IntAct's records for PubMed 12897162 are described below.

The chains are these.
B1: DNA repair protein rad60 (Schizosaccharomyces pombe (strain ATCC 38366 / 972)), Q9USX3 (parent)
chain: MDNLDEDDLAFFSKPIKKPPLNYAKQLIASSSDSEEESELDTNKQALEHINAQKNITHNENKSAEPLSRQSTILDADEGNQDVSDTTPNACLNEGRHSPKSAISCVTQPVSPVYNTRAAANLRNNSINSEAALSTTSSLLDDDFARRLEEIDRQVQEFEKSSSDMDVQIHTHKREIEEDDDNTSADVPLLKHSKSDHSTLYHSKSEFSTNEPVISVVLQLAVIGQRIPNSNISLPRDWEAPLFFKVKSNQQFRRVRIAYSERKKVDNVVLVFQNQRLWDYGTPKGAGMLKVDTRLVVHAYCHSDFISLKRIKELEVEKLSSVTEDSTAQTCKLITLLLRSSKSEDLRLSIPVDFTVKDLIKRYCTEVKISFHERIRLEFEGEWLDPNDQVQSTELEDEDQVSVVLD
partner: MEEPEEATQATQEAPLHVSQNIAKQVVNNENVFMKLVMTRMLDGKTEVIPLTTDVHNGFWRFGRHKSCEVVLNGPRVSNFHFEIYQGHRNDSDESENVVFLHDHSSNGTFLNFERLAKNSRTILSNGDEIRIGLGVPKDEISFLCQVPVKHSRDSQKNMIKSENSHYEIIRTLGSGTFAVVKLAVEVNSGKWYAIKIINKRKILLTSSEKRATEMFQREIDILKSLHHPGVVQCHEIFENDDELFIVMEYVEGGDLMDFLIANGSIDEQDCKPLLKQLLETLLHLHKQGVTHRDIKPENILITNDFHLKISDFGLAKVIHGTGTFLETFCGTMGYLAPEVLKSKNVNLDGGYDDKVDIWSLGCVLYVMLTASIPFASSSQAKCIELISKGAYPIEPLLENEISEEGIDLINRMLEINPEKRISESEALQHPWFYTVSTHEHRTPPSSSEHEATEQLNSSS
B2: Serine/threonine-protein kinase cds1 (Schizosaccharomyces pombe (strain ATCC 38366 / 972)), Q09170 (parent)
chain: B1 partner
partner: B1 chain

Variants of B1 are the subject of one experiment. The note with it: with rad53_schpo cds1, Q09170.
For T72A;I232S;Q250R;K312N, the “effect of a mutation on the interaction” value is reported as “disrupting interaction”.

The variants in another experiment derive from B2. Conditions: with rad60_schpo rad60, Q9USX3.
Turning to S78A;H81A, the “effect of a mutation on the interaction” value was “disrupting interaction”.
